The chains are these.
B1: 3xFLAG-WT hTRPA1 [human] / CaM-agarose resin (calmodulin coupled to agarose) [not stated] (parent complex)
chain 1: MKRSLRKMWRPGEKKEPQGVVYEDVPDDTEDFKESLKVVFEGSAYGLQNFNKQKKLKRCDDMDTFFLHYAAAEGQIELMEKITRDSSLEVLHEMDDYGNTPLHCAVEKNQIESVKFLLSRGANPNLRNFNMMAPLHIAVQGMNNEVMKVLLEHRTIDVNLEGENGNTAVIIACTTNNSEALQILLKKGAKPCKSNKWGCFPIHQAAFSGSKECMEIILRFGEEHGYSRQLHINFMNNGKATPLHLAVQNGDLEMIKMCLDNGAQIDPVEKGRCTAIHFAATQGATEIVKLMISSYSGSVDIVNTTDGCHETMLHRASLFDHHELADYLISVGADINKIDSEGRSPLILATASASWNIVNLLLSKGAQVDIKDNFGRNFLHLTVQQPYGLKNLRPEFMQMQQIKELVMDEDNDGCTPLHYACRQGGPGSVNNLLGFNVSIHSKSKDKKSPLHFAASYGRINTCQRLLQDISDTRLLNEGDLHGMTPLHLAAKNGHDKVVQLLLKKGALFLSDHNGWTALHHASMGGYTQTMKVILDTNLKCTDRLDEDGNTALHFAAREGHAKAVALLLSHNADIVLNKQQASFLHLALHNKRKEVVLTIIRSKRWDECLKIFSHNSPGNKCPITEMIEYLPECMKVLLDFCMLHSTEDKSCRDYYIEYNFKYLQCPLEFTKKTPTQDVIYEPLTALNAMVQNNRIELLNHPVCKEYLLMKWLAYGFRAHMMNLGSYCLGLIPMTILVVNIKPGMAFNSTGIINETSDHSEILDTTNSYLIKTCMILVFLSSIFGYCKEAGQIFQQKRNYFMDISNVLEWIIYTTGIIFVLPLFVEIPAHLQWQCGAIAVYFYWMNFLLYLQRFENCGIFIVMLEVILKTLLRSTVVFIFLLLAFGLSFYILLNLQDPFSSPLLSIIQTFSMMLGDINYRESFLEPYLRNELAHPVLSFAQLVSFTIFVPIVLMNLLIGLAVGDIAEVQKHASLKRIAMQVELHTSLEKKLPLWFLRKVDQKSTIVYPNKPRSGGMLFHIFCFLFCTGEIRQEIPNADKSLEMEILKQKYRLKDLTFLLEKQHELIKLIIQKMEIISETEDDDSHCSFQDRFKKEQMEQRNSRWNTVLRAVKAKTHHLEP
chain 2: not shown

The variants in this assay derive from B1. The assay is described as follows: CaM-agarose pulldown, quantified immunoblot; 2 mM Ca2+; lysates of HEK293T cells; n = 3; read off a plot.
For chain 1 W1103A, the response is ~0.36 normalized pulldown (relative to WT hTRPA1 0.1 μM Ca2+ average).

With chain 1 K989S, chain 1 R996S, chain 1 K997S, chain 1 K1001S, chain 1 W1103A, the response is ~0.05 normalized pulldown (relative to WT hTRPA1 0.1 μM Ca2+ average).

The values are drawn from article PMC12805100 (2025).
